Data taken from publication PMC4921775, “Transient Fcho1/2⋅Eps15/R⋅AP-2 Nanoclusters Prime the AP-2 Clathrin Adaptor for Cargo Binding” (Developmental Cell, 2016).
Blank lines part the entries; values can stand above or below the molecule they belong to. No end group written: not given here.

Legend:
[1] = biological target: AP-2 α-appendage appendage (UniProt P17426); details: cited from earlier work
[2] = biological target: T1, FCHO1 μHD (purified, not on beads) (human, UniProt O14526 609-889); test: pull-down; purified FCHO1 μHD with ~50 μg of GST or GST fusion protein in the presence of carrier BSA; stained or immunoblotted with an anti-FCHO1 monoclonal antibody; Figure 1D; details: both partners purified
T1 construct: human FCHO1 μ-homology domain (μHD); also called purified FCHO1 μHD; Hs FCHO1 μHD; source: purified
T1 sequence (looked up): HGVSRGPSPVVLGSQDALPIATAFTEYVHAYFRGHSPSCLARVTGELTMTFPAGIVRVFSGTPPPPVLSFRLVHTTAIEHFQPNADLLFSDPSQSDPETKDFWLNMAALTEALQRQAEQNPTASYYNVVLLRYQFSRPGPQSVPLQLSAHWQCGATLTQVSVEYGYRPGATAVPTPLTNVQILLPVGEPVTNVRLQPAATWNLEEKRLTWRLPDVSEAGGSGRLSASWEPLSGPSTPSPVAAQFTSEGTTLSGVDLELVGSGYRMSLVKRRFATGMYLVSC

[3] = biological target: T1, FCHO1 μHD (purified, not on beads); test: ITC; repeated injection of EPS15 peptides into a temperature-controlled solution of μHD, Nano ITC instrument (TA Instruments); minimum of four runs; details: both partners purified
[4] = biological target: T2, FCHO1 μHD K877E + R879A (for ITC) (human, UniProt O14526 609-889, K877E | R879A); test: as above; details: both partners purified
T2 sequence (looked up): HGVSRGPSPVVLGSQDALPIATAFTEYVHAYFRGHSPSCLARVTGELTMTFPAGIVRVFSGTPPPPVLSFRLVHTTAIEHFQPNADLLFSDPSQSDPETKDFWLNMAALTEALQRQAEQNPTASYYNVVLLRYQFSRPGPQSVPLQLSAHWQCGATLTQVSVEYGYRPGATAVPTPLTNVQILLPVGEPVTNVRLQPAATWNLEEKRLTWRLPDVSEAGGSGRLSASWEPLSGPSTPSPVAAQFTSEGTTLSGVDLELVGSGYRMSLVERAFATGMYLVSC

[5] = biological target: T3, FCHO1 μHD A629E (for ITC) (human, UniProt O14526 609-889, A629E); test: as above; details: both partners purified
T3 sequence (looked up): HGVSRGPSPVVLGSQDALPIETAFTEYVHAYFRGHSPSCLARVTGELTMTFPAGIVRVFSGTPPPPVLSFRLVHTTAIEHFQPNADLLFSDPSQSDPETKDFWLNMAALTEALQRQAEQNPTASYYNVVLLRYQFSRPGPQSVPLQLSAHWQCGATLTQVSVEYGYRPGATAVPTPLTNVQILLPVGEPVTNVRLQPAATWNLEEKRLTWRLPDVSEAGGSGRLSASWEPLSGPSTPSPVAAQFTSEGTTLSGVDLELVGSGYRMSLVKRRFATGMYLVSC

[6] = biological target: T4, FCHO1 μHD P627D + A629E (for ITC) (human, UniProt O14526 609-889, P627D | A629E); test: as above; details: both partners purified
T4 sequence (looked up): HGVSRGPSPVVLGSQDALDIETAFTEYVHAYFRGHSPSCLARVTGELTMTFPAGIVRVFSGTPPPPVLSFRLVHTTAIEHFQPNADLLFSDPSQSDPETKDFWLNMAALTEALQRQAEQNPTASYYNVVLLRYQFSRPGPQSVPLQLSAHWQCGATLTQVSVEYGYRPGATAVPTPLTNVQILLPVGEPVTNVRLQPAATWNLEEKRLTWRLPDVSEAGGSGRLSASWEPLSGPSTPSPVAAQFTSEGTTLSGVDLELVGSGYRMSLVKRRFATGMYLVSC

FCHO1 μHD R872A+S874G = biological target: T5, FCHO1 μHD R872A+S874G (Homo sapiens); test: ITC
T5 chain: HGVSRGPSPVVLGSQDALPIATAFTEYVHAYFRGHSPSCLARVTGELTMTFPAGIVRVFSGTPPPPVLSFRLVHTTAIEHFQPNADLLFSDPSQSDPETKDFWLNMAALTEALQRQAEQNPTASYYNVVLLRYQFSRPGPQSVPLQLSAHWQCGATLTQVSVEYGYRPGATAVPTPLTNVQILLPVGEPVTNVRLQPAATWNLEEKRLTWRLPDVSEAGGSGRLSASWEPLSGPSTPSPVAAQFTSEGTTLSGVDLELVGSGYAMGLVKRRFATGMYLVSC

FCHO1 μHD S732D = biological target: T6, FCHO1 μHD S732D (Homo sapiens); test: ITC
T6 chain: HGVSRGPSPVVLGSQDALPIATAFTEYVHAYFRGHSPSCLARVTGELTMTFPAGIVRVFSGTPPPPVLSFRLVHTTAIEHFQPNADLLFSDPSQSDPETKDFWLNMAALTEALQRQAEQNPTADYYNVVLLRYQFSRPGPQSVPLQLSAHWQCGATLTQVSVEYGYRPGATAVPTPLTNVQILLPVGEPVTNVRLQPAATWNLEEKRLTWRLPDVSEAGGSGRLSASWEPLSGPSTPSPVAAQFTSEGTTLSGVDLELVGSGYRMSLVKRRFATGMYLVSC

FCHO1 μHD R872M = biological target: T7, FCHO1 μHD R872M (Homo sapiens); test: ITC
T7 chain: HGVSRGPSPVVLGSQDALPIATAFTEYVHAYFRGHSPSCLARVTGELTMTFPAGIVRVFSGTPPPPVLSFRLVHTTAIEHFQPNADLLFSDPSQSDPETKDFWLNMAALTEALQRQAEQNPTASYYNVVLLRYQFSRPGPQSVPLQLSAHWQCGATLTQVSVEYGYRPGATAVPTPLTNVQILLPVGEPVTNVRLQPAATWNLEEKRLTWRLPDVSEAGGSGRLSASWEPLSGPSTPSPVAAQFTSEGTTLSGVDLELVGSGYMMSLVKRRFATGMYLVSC

[7] = biological target: T8, Danio rerio (Dr) Fcho1 μHD (Danio rerio (zebrafish)); test: ITC
T8 chain: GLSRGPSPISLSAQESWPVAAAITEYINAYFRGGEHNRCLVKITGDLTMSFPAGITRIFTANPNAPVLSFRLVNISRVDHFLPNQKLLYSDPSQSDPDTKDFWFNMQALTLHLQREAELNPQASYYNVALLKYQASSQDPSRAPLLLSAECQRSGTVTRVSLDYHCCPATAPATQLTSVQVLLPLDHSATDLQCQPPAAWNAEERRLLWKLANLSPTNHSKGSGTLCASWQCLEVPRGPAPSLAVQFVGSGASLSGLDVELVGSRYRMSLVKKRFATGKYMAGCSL

[8] = biological target: T9, GST-FCHO1 μHD K877E + R879A (human, UniProt O14526 609-889, K877E | R879A); test: pull-down; HeLa cell lysate with 250 μg (Figure 3F: the indicated amount) of GST or GST-μHD fusion proteins immobilised on glutathione-Sepharose; supernatant and pellet stained or immunoblotted; Figures 1G, 3E, 3F; details: one partner purified
T9 construct: also called K877E + R879A mutant; source: GST-fusion protein immobilised on glutathione-Sepharose; not shown: GST, N-terminal, kept
T9 sequence (looked up): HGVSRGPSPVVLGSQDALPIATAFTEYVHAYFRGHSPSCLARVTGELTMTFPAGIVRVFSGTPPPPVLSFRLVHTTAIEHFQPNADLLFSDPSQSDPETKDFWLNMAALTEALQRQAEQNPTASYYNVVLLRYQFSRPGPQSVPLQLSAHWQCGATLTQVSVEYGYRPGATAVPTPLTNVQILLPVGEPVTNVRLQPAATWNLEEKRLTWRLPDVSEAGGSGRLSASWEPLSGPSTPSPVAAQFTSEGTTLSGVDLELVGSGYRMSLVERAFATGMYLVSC

Chain of AP-2 α-appendage appendage (P17426 740-977): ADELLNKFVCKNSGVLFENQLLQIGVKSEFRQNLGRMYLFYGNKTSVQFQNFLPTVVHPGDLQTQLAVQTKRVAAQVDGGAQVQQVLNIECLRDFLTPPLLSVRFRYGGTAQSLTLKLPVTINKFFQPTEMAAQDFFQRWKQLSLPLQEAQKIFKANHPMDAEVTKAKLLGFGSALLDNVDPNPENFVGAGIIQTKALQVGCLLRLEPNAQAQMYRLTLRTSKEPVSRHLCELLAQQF

Molecule: Eps15 DPF motif (from UniProt P42566)
Kd [1]: 200 µM

B1: GST-EPS15 (615–636) (peptide)
chain: {GST}-TNLDFFQSDPFVGSDPFKDDPF
notes: source: GST-fusion protein immobilised on glutathione-Sepharose; not shown: GST, N-terminal, kept
binding result [2]: binds

B2: EPS15 616–638 peptide (peptide, UniProt P42566 616-638, looked up)
peptide: NLDFFQSDPFVGSDPFKDDPFGK
Kd [3]: 2.7 µM | Kd [4]: > 300 µM | Kd [5]: > 300 µM | Kd [6]: > 300 µM

B5: EPS15 (epidermal growth factor pathway substrate 15) (natural protein, human (endogenous in HeLa), UniProt P42566 1-896, looked up)
chain: MAAAAQLSLTQLSSGNPVYEKYYRQVDTGNTGRVLASDAAAFLKKSGLPDLILGKIWDLADTDGKGILNKQEFFVALRLVACAQNGLEVSLSSLNLAVPPPRFHDTSSPLLISGTSAAELPWAVKPEDKAKYDAIFDSLSPVNGFLSGDKVKPVLLNSKLPVDILGRVWELSDIDHDGMLDRDEFAVAMFLVYCALEKEPVPMSLPPALVPPSKRKTWVVSPAEKAKYDEIFLKTDKDMDGFVSGLEVREIFLKTGLPSTLLAHIWSLCDTKDCGKLSKDQFALAFHLISQKLIKGIDPPHVLTPEMIPPSDRASLQKNIIGSSPVADFSAIKELDTLNNEIVDLQREKNNVEQDLKEKEDTIKQRTSEVQDLQDEVQRENTNLQKLQAQKQQVQELLDELDEQKAQLEEQLKEVRKKCAEEAQLISSLKAELTSQESQISTYEEELAKAREELSRLQQETAELEESVESGKAQLEPLQQHLQDSQQEISSMQMKLMEMKDLENHNSQLNWCSSPHSILVNGATDYCSLSTSSSETANLNEHVEGQSNLESEPIHQESPARSSPELLPSGVTDENEVTTAVTEKVCSELDNNRHSKEEDPFNVDSSSLTGPVADTNLDFFQSDPFVGSDPFKDDPFGKIDPFGGDPFKGSDPFASDCFFRQSTDPFATSSTDPFSAANNSSITSVETLKHNDPFAPGGTVVAASDSATDPFASVFGNESFGGGFADFSTLSKVNNEDPFRSATSSSVSNVVITKNVFEETSVKSEDEPPALPPKIGTPTRPCPLPPGKRSINKLDSPDPFKLNDPFQPFPGNDSPKEKDPEIFCDPFTSATTTTNKEADPSNFANFSAYPSEEDMIEWAKRESEREEEQRLARLNQQEQEDLELAIALSKSEISEA
notes: human EPS15, endogenous protein; also called native EPS15 dimer/tetramer
fold reduction of recovery against the wild-type μHD [8]: ≥ 25 fold

The remaining lines, values ahead:

Kd (FCHO1 μHD R872A+S874G): 77.4 µM
B3: EPS15 616–638 peptide (peptide)
chain: NLDFFQSDPFVGSDPFKDDPFGK

Kd (FCHO1 μHD S732D): 9.1 µM | Kd (FCHO1 μHD R872M): 19.6 µM | Kd [7]: 8.1 µM
B4: EPS15 616–638 peptide (peptide)
peptide: NLDFFQSDPFVGSDPFKDDPFGK
